# Measurements as given in a protein production outcome set (Wang et al. 2014).
# Assay: label from the status in PepcDB records
# 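Also: failed if final PepcDB status was selected cloned or expressed and not failed if soluble or beyond.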
row,Sequence,protein production
1,MASLSQLSSHLNYTCGAENSTGASQARPHAYYALSYCALILAIVFGNGLLCMAVLKERALQTTTNYLVVSLAVADLLVATLVMPWVVYLEVTGGVWNFSICCDVFVTLDVMMCTASILNLCAISIDRYTAVVMPVHYQHGTGQSSCRRVALMITAVWVLAFAVSCPLLFGFNTTGNPTVCSISNPDFVIYSSVVSFYLPFGVTVLVYARIYVVLKQRRRKRILTRQNSQCNSVRPGFPQQTLSPDPAHLELKRYYSICQDTALGGPGFQERGGELKREEKTRNSLSPTIAPKLSLEVRKLSNGRLSTSLKLGPLQPRGVPLREKKATQMVAIVLGTFIVCWLPFFLTHVLNTHCQTCHVSPELYSATTWLGYVNSALNPVIYTTFNIEFRKAFLKILSC,not failed
2,MELVFDKDGLSAYLEEVFPQIQGEFSIDALAKGEITMRLNVQERHLRPGGTVSGPSMFALADVSVYALVLAHLGREALAVTTNASLDFMRKPESGRDLLGQARLLKLGRTLAVGDILLFSEGMEAPVARSTMTYSIPPKR,not failed
3,MAPLNYKTITSRSILSKVLVRATQQWPTDKTLNKQLSELYGAYVNSFVSKFKDKHVITISLEVVNEKFLKDKTPLFEKGLDTLKEIIWNPLIKDRCFDHTYVAQEKSLLSKKLEAMEDNKAQYSFLQLMNYMFKQEPYRYIATGQLEQIPQVTSESLYDTYLSMVQNDDCAIYVVGNINKEEVTQLILDKFAIKPFYLENKESTEITPSFDQPQYIIEKDDVDQAKLNLGYRFPSYYGKSNYYAFIVLNMMFGGDPSSVLFNEVREKQSLAYSIHSQIDGKNGFLFVLSGVSAEKYEQAKDTVIKEFDKIKNGDFDSNKIELAKKIIISHRHEASDRPKSIIEILHNQLLLNRQQTDQDFINAVNQVTKKDVIKLANEAVLDTIYVLTKGDQH,failed
4,MARDNENILEEWCLIESNPCIFYDMLKRMGATEISVEDVYSLSYFDDYINNKEIINMNHILGVDTYLGENNKTLDKENNVVDVIELYKNNICMEDKYNKLLKHHSYIYGIIFLFNIGKHYKNNKYIEHNVPDNLFFAKQVIPNACATQAILSIVLNKDIELNDEIKNIKTFSLNFDSSMKGLTLSNCTFLRNIHNSYKPPIYLDKEDVHHDKKKSEDSFHFVSYISFQDKVYLLDGLQSGPVLINADEQNKPNPNNNNNNKDNDNDNNNNNNNNNNNNNNNNNNNNNNNNNNIGMNGKDWIEISREHIKKEIDEICNSQTNNDVRFNIIAVMKDKEYIIQEYINIHRIVKQRVNIKLINLGENIELSDEINEDEFPLLNDIPSIENLPNNVDTLYNIVNKSTLEINYLQSLLHEQKEIKKLWNIELTFKFFNFYPFIMSSLNLMAKHKLLKDAYQKEKLKNATKS,failed
5,MAQLPASMRRKRAAITSIHEKPPSRKQKLVNAGGWILLCIAFVVLAAGVYGLYKVITDAKIADLSIVGTRSVVEQNQLQQHIQPIIKDNYFTSDLEQIRDKALEISWVDRVVVSRAWPNSIRVRIMPRHAIARWGTGRLLSDSGDVYAEAELKNHPNLPMLHGPITQSKAMMRRYNEINQLFQPVNLRLTELYLTERMTWFMQFDSGLRVIVDQDQTMSKLQRLSHLAQTDLKPVWSKISAIDLRYRNGLSLQWKTGVPPKILNGQFVVTSDDTNVASGMTAKP,failed
6,MLRSLRLAALLGSLLMAVAASARDIDAASYGYPLTNPFEATIATTPPDKRPELPSDDEITQSDYSLNLRPEREFTLPDNFWAVKKLKYRLARQDHEAPLIFIIAGTGAPYSSSINEYLKKLFYQAGFHVVQLSSPTSYDFMSAASRFATPGISQEDAEDMYRVMQAVRAQHPRLPVSDFYLTGYSLGALDAAFVSHLDETRRSFNFKRVLLLNPPVNLYTSINNLDKLVQTQVKGIDRSTTFYELMLEKLTRYFQDKGYIDLNDALLYDFQQSRQHLSNEQMAMLIGTSFRFSAADIAFTSDLINRRGLIIPPKFPITEGSSLTPFFKRALQCDFDCYMTEQVIPMWRARTDGNSILQLVNQVSLYALEDYLRSSDKIAVMHNADDVILGPGDIGFLRKVFGERLTLYPHGGHCGNLNYRVNSDAMLEFFRG,failed
7,MSLSLLLQQHLSQPWRFLDHTSFGPTFQALQSFAYDDTLCTSIGKSQSPPTLRAWVHHNTVVLGIQDSRLPQIKAGIEALKGFQHDVIVRNSGGLAVVLDSGILNLSLVLKEEKGFSIDDGYELMYELICSMFQDHREQIEAREIVGSYCPGSYDLSIDGKKFAGISQRRIRGGVAVQIYLCVSGSGAERAKMIRTFYDKAVAGQPTKFVYPRIKPETMASLSELLGQPHNVSDVLLKALMTLQQHGASLLTESLSADEWLLYEQHFARISERNEKLLAEEGHHHHHH,not failed
8,MGIRRLVSVITRPIINKVNSSGQYSRVLATREDQDKASPKYMNNDKIAKKPYTYRLFSILGILSICSLLLISLLKPFNGADAPQCESIYMFPSYARIDGFDERYTPLAHKYHLYLYREQSVDREPLNGDELQLDGIPVLFIPGNAGSFRQCRSIASACSNIYFDSNTRATLRNENVRNLDFFTADFNEDFTAFHGETMLDQAEYLNDAIKYILSLYERTPDYPHPKPQSVIIVGHSMGGIVSRVMLTLKNHVPGSISTILTLSSPHAASPVTFDGDILKLYKNTNEYWRKQLSQNDSFFSKNISLVSITGGILDTTLPADYASVEDLVSLENGFTSFTTTIPDVWTPIDHLAIVWCKQLREVLARLLLESIDASKPEKVKPLNQRLQIARKLLLSGFEDYSWMNSKLNYPQENLQEFSDNFFSDYATLEMNDVLDFEMFNLEKWHNNYTKINIPSNISSTEHLHFTLLTSLDMPMIYFCTESRVNLSCITAVDSILTVPRSSKDTQFAADSSFGEAKNPFKAVSVGKNILQKYDYLMISKPTYGEFSEQEGMEDNQGFLLALLRNVSNVQIVNTTPSQILLFGEQLHLDGKDIEQVISFSNLWDSLLSYKLETKIEASNEGIASEETLFQPFIRQWVYEPFESKWHLNIINKSLDINMHNVAPFIPLNESEPRSLQLSFFIPPGMSLEAKMTINWSLTLKMLFIRYRLALASFPVAFIALVLSYQFYWYNKTSEFPSFDSTLGYILRKHGILMFFTLFLASPVVNNKLVQRILYLLDPVGLNYPFLLSERNMHANFYYLGIRDWFMSTIGILFGVMTVGLLALVSKIFGSLEILVIFLQRKLSKKNTEDKEAFDTIEHKAYGKGRLMASVLLLLLVFFHIPYQMAFVISLVIQIATCIRVALLKLSNNEQKLNLLNYNMTLLLLLLFVSAINIPIIIVFLHNVAIKWETSFRSHHNILAVAPIIFLVGNNSIFKMPNSVPLDTWDGKVTIILFVYLTVFSFIYGIRNLYWIHHLVNIICAWLLFFETIH,failed
9,MSESTYPSVKDLTLEEKASLTSGGDSWHLQGVESKGIPGYMITDGPHGLRKSLASSTGETDLNNSVPATCFPPAAGLSSSWNPELIHKVGEAMAEECIQEKVAVILGPGVNIKRNPLGGRCFEYWSEDPYLAGHEAVGIVAGVQSKGVGTSLKHFAANNQETDRLRVDARISQRALREIYLPAFEHIVKTAQPWTIMCSYNRINGVHSAQNHWLLTDVLRDEWGFEGIVMSDWGADHDRVASLNAGLNLEMPPSYTDDQIVYAARDGRIAPAQLDRMAQGMIDLINKACAAMSIDGYRFDVDAHDEVAHQAAIESIVLLKNDDAILPLNADPAAARKIAVIGEFARTPRYQGGGSSHITPTKMTSFLDTLAERGIKADFAPGFTLDLEPADPALESEAVETAKNADVVLMFLGLPEAAESEGFDRDTLDMPAKQIALLEQVAAANQNVVVVLSNGSVVSVAPWAKNAKGILESWLLGQSGGPALADVIFGQVSPSGKLAQSIPLDINDDPSMLNWPGEEGHVDYGEGVFVGYRYYDTYGKSVDYPFGYGLSYATFEIADVAAAKTGANTATVTATVTATVTNTSDVDAAETVQVYVAPGKADVARPKHELKGFTKVFLKAGESKSVTIDLDERAFAYWSEKYNDWHVESGEYAIEVGVSSRDIADTVVVTLEGDGKSQPLTEWSTYGEWEADPFGAKIVAAVAAAGEAGELTKLPDNAMMRIFLNSMPINSLSTLLGEGGKKIAKFMVDEYAKLAK,failed
10,MISNNPNHTEYDTWAWLYNQTMGPEYSQNQLKPLEKILLPQIKPNAKILDLCCGTGQLVQTLINRGYQITGVDNSSEMLNYARKNAPNGQFLLADARYFELPLSFDAAFSTSAALNHIMTIPELQQVFQRVYSALKENGWFLFDINHHQQMQRWWRGKIAEGEIENKYAWMVTPNYNPEERQGYFQVTMFQKKTKPSSARIIKIIWRLLSPILNHNLLYKLRIKLLSVFQAKEKNWQRMDEKYFVRGHIPEEIKIALQQTGFTDIQILTLEGNPTIDDRHSAYFLCRKPVNI,failed
11,MNYSHPISLKTLVQEDDIGVNAPIIHQSVIARLTAGLYPLYQSKKIPFEPLPETMLTEGYSSPVPDVLLYDHQTEEAKVIIEVCQNSGLKHDTSKIVKLIEDNAYGILEGFVFNYKTQQWLRYRLGDGGVATNSSFSEVLQVDLNTFV,not failed
12,MIGQTDQNIVITYSANIQQVKILYVDEKGSEVSSMLLKGNTDQTVNVSYSVPDHWIAISGQDSPLQYTFKAKDNKNIVIRIGHKLEDQENDIHKIIRNVNIVNPDGSVAKVSQTAIFTRVHQRDEVTGEEVYGNWDKISQDFNAIDIPKIFGYTATSSVGKMTVTPDSQSENITITYTADIQNNKIVIIDDESHGSQINTVGFTGKTGKSIAWQVTIPENYDLAAGGKISGNYTFNAVNQIPIEVHVRHKHVQDDESKSVTRTIVTNLPGLDKSEIVQTVTFSRIIDKDLVDGN,failed
13,MSEFEGWIKWLEPVFLLWKPEDPGYERPAYRDWTKEEDEPKYSPEKELALLDKQILASDGFDIDFTHFRCVFNYHLAYLDSHEFVDEPETTRDLLERLSRKALDDYNQESVVKANFHFCCAIMFLITFEVVDPYDNLIKLFQTRVRHAEDIVTEYVFCRPKPNQGVECIGVKNNDGKDVQTNVKEQEIPCMYGWFLRVITITFTLQIGVGASICHKE,failed
14,MFADRLFNAMERNEPAPGMVLVAAPSMESEDFARSVILIIEHSEYATFGVNLASRSDVAVFNVIPEWVPCVTKPQALYIGGPLNQQSVVGVGVTAQGVDAARVDNLTRLANRLVMVNLGADPEEIKPLVSGMRLFAGHAEWAPGQLAQEIENGDWFVAPALPSDVTAPGSVDVWGDVMRRQPMPLPLYSTFPVNVGEN,not failed
15,MKIKATIERVPGGMMIIPLFLGAALNTFAPGTAEFFGGFTGALITGTLPILGVFIFCVGATIDFRSSGYIARKGITLLLGKIGFAALLGVIAAQFIPDDGIQSGFFAGLSVLAIVAVMNETNGGLYLALMNHMGRKEDAGAFAFISTESGPFMTMVTFGVTGLAAFPWETLAATVIPFLLGCILGNLDHDLRDLFSKVVPAIIPFFAFSLGNTLNFGMLIQSGLLGIFIGVSVVILSGSSLFLLDRFIARGDGVAGVAASSTAGAAVAVPYALAEANASFAPVAESATAIIATSVIVTSLLTPLATVWVDKKIKQKKRRTPPPKNQMTIN,failed
16,MATTNYSMIFIGNLQVAVDRSSLYESSDYSSFVARECLNKDSAMKPYDIFIFEKDEHFSVEDHYTAGNSSNESNTRPSDIFLKKKLVGLNPSILQLNREKRKATLKFSGDNKDILQSTLSSSKNINLSGGLFVSREYENKYVKFGARMRCDLVNRMKDVTLAWHESVSSTSDKNVELSSVENHKIAPKADGPGNSSNESSSSPFDIFLKKKVMRLKPSFLELNREKKKAAKGFSGIVIRPGMVLLKNYLSINNQVMIVNKCRQLGLGEGGFYQPGFQDGGLLHLKMMCLGKNWDCQTRRYGEIRPIDGSVPPRIPVEFSQLVEKAIKESKSLVATNSNETKGGDEIPLLLPDICVVNFYTSTGKLGLHQDKGESKKSLRKGLPIVSFSIGDSAEFLYGDQKDVDKADTLILESGDVLIFGERSRNVFHGVRSIRKILPPRLFFRKQIFNQVV,failed
17,MVSVNSSHCFYNDSFKYTLYGCMFSMVFVLGLISNCVAIYIFICVLKVRNETTTYMINLAMSDLLFVFTLPFRIFYFTTRNWPFGDLLCKISVMLFYTNMYGSILFLTCISVDRFLAIVYPFKSKTLRTKRNAKIVCTGVWLTVIGGSAPAVFVQSTHSQGNNASEACFENFPEATWKTYLSRIVIFIEIVGFFIPLILNVTCSSMVLKTLTKPVTLSRSKINKTKVLKMIFVHLIIFCFCFVPYNINLILYSLVRTQTFVNCSVVAAVRTMYPITLCIAVSNCCFDPIVYYFTSDTIQNSIKMKNWSVRRSDFRFSEVHGAENFIQHNLQTLKSKIFDNESAA,failed
